One protein from publication PMC2845550, “Heterologous expression of leader-less pga gene in Pichia pastoris: intracellular production of prokaryotic enzyme” (BMC Biotechnology, 2010) can be followed below.

Substrate in data set [1]: CC1(C)S[C@@H]2[C@H](NC(=O)Cc3ccccc3)C(=O)N2[C@H]1C(=O)O
Put plainly: purified protein. The following applies: 37 °C, substrate 5-100 μM. The class given is biochemical, Escherichia coli.

Substrate in data set [2]: O=C(Cc1ccccc1)Nc1ccc([N+](=O)[O-])c(C(=O)O)c1
Nature of the data set: purified protein. The class given is biochemical, Escherichia coli. The following applies: 50 mM phosphate buffer, pH 8, 37 °C, substrate 7-2000 μM.

B1: PGAEc (Escherichia coli) (protein)
chain 1: EQSSSEIKIVRDEYGMPHIYANDTWHLFYGYGYVVAQDRLFQMEMARRSTQGTVAEVLGKDFVKFDKDIRRNYWPDAIRAQIAALSPEDMSILQGYADGMNAWIDKVNTNPETLLPKQFNTFGFTPKRWEPFDVAMIFVGTMANRFSDSTSEIDNLALLTALKDKYGVSQGMAVFNQLKWLVNPSAPTTIAVQESNYPLKFNQQNSQTA
chain 2: SNMWVIGKSKAQDAKAIMVNGPQFGWYAPAYTYGIGLHGAGYDVTGNTPFAYPGLVFGHNGVISWGSTAGFGDDVDIFAERLSAEKPGYYLHNGKWVKMLSREETITVKNGQAETFTVWRTVHGNILQTDQTTQTAYAKSRAWDGKEVASLLAWTHQMKAKNWQEWTQQAAKQALTINWYYADVNGNIGYVHTGAYPDRQSGHDPRLPVPGTGKWDWKGLLPFEMNPKVYNPQSGYIANWNNSPQKDYPASDLFAFLWGGADRVTEIDRLLEQKPRLTADQAWDVIRQTSRQDLNLRLFLPTLQAATSGLTQSDPRRQLVETLTRWDGINLLNDDGKTWQQPGSAILNVWLTSMLKRTVVAAVPMPFDKWYSASGYETTQDGPTGSLNISVGAKILYEAVQGDKSPIPQAVDLFAGKPQQEVVLAALEDTWETLSKRYGNNVSNWKTPAMALTFRANNFFGVPQAAAEETRHQAEYQNRGTENDMIVFSPTTSDRPVLAWDVVAPGQSGFIAPDGTVDKHYEDQLKMYENFGRKSLWLTKQDVEAHKESQEVLHVQR
notes: mature periplasmic heterodimer cut from 846-residue preproprotein; homologous expression in E. coli RE3(pKA18), untagged
With B1, in data set [1], the Km is 34 µM and the kcat was determined as 13.6 s⁻¹. In data set [2], the Km came out at 28 µM, the Vmax worked out at 15000 µM/min and the kcat is 1.6 s⁻¹.
